These results are taken from paper PMC5286426, “The Calcium-Dependent Switch Helix of L-Plastin Regulates Actin Bundling” (Scientific Reports, 2017).

The assay concerns the target L-plastin EF construct (EF-hand headpiece domain, H5 region omitted) (human). The experiment in a line: SPR; EF construct immobilised by its sole cysteine (Cys42) on a CM5 chip by thiol coupling; peptides injected; BIAcore X100; 10 mM Tris-HCl pH 7.5, 150 mM KCl, 1 mM CaCl2, 0.005% Tween-20; 30 uL/min, contact 1 min, 25 °C. On the technique in general: SPR reads the build-up and loss of mass on a sensor chip optically.

B1: synthetic H5 peptide representing the H5 region of LPL (residues 83-100) (peptide)
peptide: Ac-STDVAKTFRKAINKKEGI-NH2
Turning to B1, the Kd stood at 3.52 µM.

As usually defined, the Kd is the free concentration of one partner at which half of the binding sites on the other are occupied at equilibrium, for simple one-to-one binding.
